Measured values taken from US20230287070A1, “NOVEL TUMOR-SPECIFIC ANTIGENS FOR ACUTE MYELOID LEUKEMIA (AML) AND USES THEREOF” (UNIVERSITE DE MONTREAL, priority 2020, published 2023).
Blank lines part the entries; values can stand above or below the molecule they belong to.

Experiments:
T-cell clonotypes = assay: FEST assay (functional expansion of specific T cells, TCR Vβ CDR3 sequencing); type: cell-based, human; conditions: pool of TSAs^hi, healthy donor
Experimental: For FEST assays, T cells were cultured as previously described, with minor modifications (Danilova et al., 2018). Briefly, on day 0, thawed PBMCs from a healthy donor (BioIVT) were T-cell enriched using the Human Pan T-cell isolation kit (Miltenyi). T cells were resuspended at 2 × 10^6/mL in AIM V media supplemented with 50 µg/mL gentamicin (ThermoFisher Scientific) and 1% Hepes. The T cell-negative fraction was irradiated at 30 Gy, washed and resuspended at 2.0 × 10^6/mL in AIM V media supplemented with 50 µg/mL gentamicin and 1% Hepes. One ml per well of both T cells and irradiated T cell-depleted cells were added to a 12-well plate, along with either one of the 3 TSA^hi pools (5 TSAs^hi per pool, 1 µM final concentration for each TSA) or without peptide. Cells were cultured for 10 days at 37° C., 5% CO2. On day 3 and 7, half the culture media was replaced with fresh culture media containing 100 IU/mL IL-2, 50 ng/mL IL-7, and 50 ng/mL IL-15 (day 3) and 200 IU/mL IL-2, 50 ng/mL IL-7, and 50 ng/mL IL-15 (day 7). On day 10, cells were harvested and CD8^+ cells were further isolated using the Human CD8^+ T Cell Isolation Kit (Miltenyi). As a negative control, CD8^+ T cells were also isolated from freshly thawed uncultured PBMCs of the same healthy donor. DNA was extracted from CD8^+ T cells using a Qiagen DNA blood mini kit (Qiagen). […]

[1] = biological target: Pool 1 of TSAs^hi: … … … IASPIALL …; assay: cell-based or functional assay
[2] = biological target: Pool 2 of TSAs^hi: … … … … …; assay: cell-based or functional assay
[3] = biological target: Pool 3 of TSAs^hi: LRSQILSY … … … …; assay: cell-based or functional assay

Molecule: 3 (GARQQIHSW; listed as Homo sapiens) [compound 3]
Significantly expanded clonotype (SEQ ID NO:) (T-cell clonotypes): CARSFGGFF (213)

B1: TCR clonotype with TCRbeta CDR3 … (TCR)
TCR beta: CASTVVAGNSSPLHF
FEST assay: clonotype expansion, odds ratio (FDR 1.2 E-07) [1]: 18.8

B2: TCR clonotype with TCRbeta CDR3 … (TCR)
TCR beta: CASSDRTGGSSNEKLFF
FEST assay: clonotype expansion, odds ratio (FDR 0.008031) [2]: 8.21

B3: TCR clonotype with TCRbeta CDR3 … (TCR)
TCR beta: CASSADSSLGGYTF
FEST assay: clonotype expansion, odds ratio (FDR 1.13 E-10) [3]: 45.4

B4: TCR clonotype with TCRbeta CDR3 … (TCR)
TCR beta: CASSYVLNTEAFF
FEST assay: clonotype expansion, odds ratio (FDR 0.010284) [2]: 10.8

B5: TCR clonotype with TCRbeta CDR3 … (TCR)
TCR beta: CASSESGTGGQPQHF
FEST assay: clonotype expansion, odds ratio (FDR 1.14 E-08) [2]: 3.46

Continued, values first:

FEST assay: clonotype expansion, odds ratio (FDR 0.003813) [2]: 3.35
B6: TCR clonotype with TCRbeta CDR3 … (TCR)
TCR beta: CASSRTGENTEAFF

FEST assay: clonotype expansion, odds ratio (FDR 0.007052) [2]: 3.76
B7: TCR clonotype with TCRbeta CDR3 … (TCR)
TCR beta: CASSSTDRQHYGYTF

FEST assay: clonotype expansion, odds ratio (FDR 0.008031) [2]: 8.21
B8: TCR clonotype with TCRbeta CDR3 … (TCR)
TCR beta: CATSRSGDSNQPQHF

FEST assay: clonotype expansion, odds ratio (FDR 0.000665) [1]: 12.3
B9: TCR clonotype with TCRbeta CDR3 … (TCR)
TCR beta: CASSVDAGGNYEQYF

FEST assay: clonotype expansion, odds ratio (FDR 4.67 E-30) [2]: 59.8
B10: TCR clonotype with TCRbeta CDR3 … (TCR)
TCR beta: CASSEYRALNTEAFF
